B1: SH3 and multiple ankyrin repeat domains protein 2 (Rattus norvegicus (Rat)), Q9QX74-4 (parent)
chain: MMSVPGGGAATVMMTGYNNGRYPRNSLYSDCIIEDKTVVLQKKDNEGFGFVLRGAKADTPIEEFTPTPAFPALQYLESVDEGGVAWQAGLRTGDFLIEVNNENVVKVGHRQVVNMIRQGGNHLVLKVVTVTRNLDPDDTARKKAPPPPKRAPTTALTLRSKSMTAELEELVDKASVRKKKDKPEEIVPASKPSRTAENVAIESRVATIKQRPTSRCFPAASDVNSVYERQGIAVMTPTVPGSPKGPFLGLPRGTMRRQKSIDSRIFLSGITEEERQFLAPPMLKFTRSLSMPDTSEDIPPPPQSVPPSPPPPSPTTYNCPRSPTPRVYGTIKPAFNQNPVAKVPPATRSDTVATMMREKGMFYRRELDRFSLDSEDVYSRSPAPQAAFRTKRGQMPENPYSEVGKIASKAVYVPAKPARRKGMLVKQSNVEDSPEKTCSIPIPTIIVKEPSTSSSGKSSQGSSMEIDPQATEPGQLRPDDSLTVSSPFAAAIAGAVRDREKRLEARRNSPAFLSTDLGDEDVGLGPPAPRMQPSKFPEEGGFGDEDETEQPLLPTPGAAPRELENHFLGGGEAGAQGEAGGPLSSTSKAKGPESGPAAALKSSSPASPENYVHPLTGRLLDPSSPLALALSARDRAMQESQQGHKGEAPKADLNKPLYIDTKMRPSVESGFPPVTRQNTRGPLRRQETENKYETDLSKDRRADDKKNMLINIVDTAQQKSAGLLMVHTVDIPVAGPPLEEEEDREDGDTKPDHSPSTVPEGVPKTEGALQISAAPEPAAAPGRTIVAAGSVEEAVILPFRIPPPPLASVDLDEDFLFTEPLPPPLEFANSFDIPDDRAASVPALADLVKQKKSDTPQPPSLNSSQPANSTDSKKPAGISNCLPSSFLPPPESFDAVTDSGIEEVDSRSSSDHHLETTSTISTVSSISTLSSEGGESMDTCTVYADGQAFVVDKPPVPPKPKMKPIVHKSNALYQDTLPEEDTDGFVIPPPAPPPPPGSAQAGVAKVIQPRTSKLWGDVTEVKSPILSGPKANVISELNSILQQMNRGKSVKPGEGLELPVGAKSANLAPRSPEVMSTVSGTRSTTVTFTVRPGTSQPITLQSRPPDYESRTSGPRRAPSPVVSPTELSKEILPTPPSAAAASPSPTLSDVFSLPSQSPAGDLFGLNPAGRSRSPSPSILQQPISNKPFTTKPVHLWTKPDVADWLESLNLGEHKETFMDNEIDGSHLPNLQKEDLIDLGVTRVGHRMNIERALKQLLDR

Variants of: B1
Details: with cftr_mouse Cftr

Variant | effect of a mutation on the interaction
H109Q | with no effect
H109R | disrupting interaction
H109A | disrupting interaction

Reference: IntAct's records for PubMed 14679199
